For one substance, EC50, pseudovirus neutralization, IC50 and pseudovirus neutralization, fold drop of activity against Omicron BA.2 results are on record in patent US20240228595A1.

The target in assay [1] is SARS-COV-2 Omicron RBD recombinant protein (Sino Biological 40592-V08H121) (SARS-CoV-2 Omicron BA.1) (UniProt P0DTC2). The assay can be described thus: ELISA, SARS-CoV-2-Omicron BA.1 RBD coated, antibody titrated. In general terms: An ELISA detects its analyte on a solid surface through an enzyme-linked reagent.
In assay [2] the target is SARS-COV-2 Omicron BA.2 spike on HIV-1 based pseudovirus (SARS-CoV-2 Omicron BA.2) (UniProt P0DTC2). The assay can be described thus: cell-based or functional assay.
In assay [3] the target is SARS-COV-2 Omicron BA.1 spike on HIV-1 based pseudovirus (Example 3) (SARS-CoV-2 Omicron BA.1) (UniProt P0DTC2). The assay can be described thus: cell-based or functional assay.
The target of assay [4] is SARS-COV-2 Omicron BA.2 RBD (AcroBiosystems Cat. No. SPD-C522g) (SARS-CoV-2 Omicron BA.2) (UniProt P0DTC2). Description: ELISA, SARS-CoV-2-Omicron BA.2 RBD coated, antibody titrated.
Assay [5] deals with SARS-COV-2 Delta RBD (Sino Biological Cat. No. 40592-V08H90) (SARS-CoV-2 Delta) (UniProt P0DTC2). Description: ELISA, SARS-CoV-2-Delta RBD coated, antibody titrated.

What is called EC50 is the concentration that produces a half-maximal response. As to S309 (Sotrovimab) (antibody), the EC50 stood at 6 ng/mL in assay [1], 4 ng/mL in assay [4] and 2 ng/mL in assay [5]. The figures for the pseudovirus neutralization, IC50 in assay [2] and in assay [3] were 2750 ng/mL and 446 ng/mL, respectively. In assay [2], this substance showed a pseudovirus neutralization, fold drop of activity against Omicron BA.2 of 30 fold.
